The data set has as its target T1, His6-OpaR (Vibrio parahaemolyticus (VP93?)) (UniProt Q79YV4).
T1 sequence: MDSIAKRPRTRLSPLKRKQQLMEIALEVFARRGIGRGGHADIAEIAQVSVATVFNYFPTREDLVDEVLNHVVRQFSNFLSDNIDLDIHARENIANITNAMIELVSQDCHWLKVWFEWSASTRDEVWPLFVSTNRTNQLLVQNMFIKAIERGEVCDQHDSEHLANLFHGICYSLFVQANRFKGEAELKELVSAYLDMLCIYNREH
Description: EMSA. The following applies: EMSA: 0.4 ng probe, 20 uL of 100 mM HEPES pH 7.6, 5 mM EDTA, 50 mM (NH4)2SO4, 5 mM DTT, 1% Tween 20, 150 mM KCl, 25 C, 30 min; footprinting: 75 ng probe, DIG …. A general note: A gel shift assay detects complexes by their altered migration in electrophoresis.

In the case of “GCGCCAAAATGGCATAGAAAGGTGAAGAATAGCATTACATTGAAAAATAACAAAAGGGCAGTGCGTGATCGCACTGCCCTTTTAATAATCAGATTGATAGTAAGATTAACTCTTCGAGCTTTATCACCAAGAGTGATGAATCAATCG (double strand) [degS P1]”, the binding entry is reported as “binds”.

In the case of “GGTTTATCCTATAAATTGCGGATATTTTAAGAAATTAATATTCATTAAATTGATAACTGGCGACGGATCTTTATGATGACGGTTGATATGCCGATAGAGCACTCATTAGCCAGT (double strand) [lytM P1]”, the binding entry is given as “binds”.

The values above are taken from article PMC7658014.
